Experimental data from paper PMC5693923 (2017).
One block for each binder: values may come before it.

Target: TLR4 extracellular domain 24-631 (Homo sapiens, UniProt O00206)
Experiment: solid phase binding assay

Sequence of TLR4 extracellular domain 24-631 (O00206 24-631): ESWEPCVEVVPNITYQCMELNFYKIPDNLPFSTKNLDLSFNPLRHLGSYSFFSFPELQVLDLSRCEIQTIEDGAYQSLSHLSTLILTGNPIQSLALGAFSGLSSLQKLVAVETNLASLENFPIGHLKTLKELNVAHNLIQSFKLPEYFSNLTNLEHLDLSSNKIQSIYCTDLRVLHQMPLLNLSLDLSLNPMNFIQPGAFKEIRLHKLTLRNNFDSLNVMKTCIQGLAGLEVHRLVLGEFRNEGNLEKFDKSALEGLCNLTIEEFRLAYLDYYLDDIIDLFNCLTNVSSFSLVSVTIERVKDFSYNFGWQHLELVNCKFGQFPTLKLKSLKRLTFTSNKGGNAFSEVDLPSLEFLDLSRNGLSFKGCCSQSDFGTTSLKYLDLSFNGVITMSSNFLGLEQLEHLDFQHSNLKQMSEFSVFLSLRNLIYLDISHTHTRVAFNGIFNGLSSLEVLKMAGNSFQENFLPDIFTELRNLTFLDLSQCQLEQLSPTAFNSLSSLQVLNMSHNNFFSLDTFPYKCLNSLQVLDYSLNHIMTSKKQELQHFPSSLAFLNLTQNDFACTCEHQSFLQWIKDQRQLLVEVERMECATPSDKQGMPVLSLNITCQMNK

Kd: ~55 nM
B1: Tenascin-W FBG domain (FBG-W) 1060-1300 (protein)
chain: VGARFPHPSDCSQVQQNSNAASGLYTIYLHGDASRPLQVYCDMETDGGGWIVFQRRNTGQLDFFKRWRSYVEGFGDPMKEFWLGLDKLHNLTTGTPARYEVRVDLQTANESAYAIYDFFQVASSKERYKLTVGKYRGTAGDALTYHNGWKFTTFDRDNDIALSNCALTHHGGWWYKNCHLANPNGRYGETKHSEGVNWEPWKGHEFSIPYVELKIRPHGYSREPVLGRKKRTLRGRLRTF

Kd: ~55 nM
B2: Tenascin-R FBG domain (FBG-R) 1128-1359 (protein)
chain: GGRVFPHPQDCAQHLMNGDTLSGVYPIFLNGELSQKLQVYCDMTTDGGGWIVFQRRQNGQTDFFRKWADYRVGFGNVEDEFWLGLDNIHRITSQGRYELRVDMRDGQEAAFASYDRFSVEDSRNLYKLRIGSYNGTAGDSLSYHQGRPFSTEDRDNDVAVTNCAMSYKGAWWYKNCHRTNLNGKYGESRHSQGINWYHWKGHEFSIPFVEMKMRPYNHRLMAGRKRQSLQF
